From the supplement of paper PMC12042874 come the findings set out here.

± gives the uncertainty stated by the source.

The data set is described as follows: amyloid nucleation score (Sup35N fusion, yeast selection) (log enrichment); library NNK3; higher = more nucleation; inactive = no reads after selection. The method, boiled down:
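Sup35N fusions to peptides of 20 random codons were expressed in psi-negative yeast, induced 24 hours with 100 μM copper sulfate, and grown 7 days at 30°C on medium lacking adenine and uracil. Input and output plasmid inserts were sequenced by Illumina. The nucleation score is the DiMSum log enrichment of output over input reads, centred on the mode score of non-aggregating sequences. Sequences with under 100 input reads were excluded.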
VFSEWYVFHGQEVSTIHCAH: the amyloid nucleation score result was “inactive”.

LADFRGQSLTDEGCMWTSSG: the amyloid nucleation score entry is “inactive”.

FSPTIGTTWDTLMF: the amyloid nucleation score result is “inactive”.

For the substance TFCMLCYQNSIFTVYNSEYQ, the amyloid nucleation score came to 3.36 ± 0.064.

As to CDAWILFFWHVVNISYRVDK, the amyloid nucleation score entry is “inactive”.

As to SSKLFL, the amyloid nucleation score entry is “inactive”.

Turning to FNCSARNYGTRFFCLMRAGV, the amyloid nucleation score was -0.654 ± 1.4.

FFNKGCMFCSREAVIVQIWG: the amyloid nucleation score was 2.62 ± 0.082.

DQSNSSEGILCYNLCVLMTE had an amyloid nucleation score of 2.43 ± 0.072.

Regarding TSYYIYTVSFDGCCSNLRTV, the amyloid nucleation score came out at 1.56 ± 0.13.

In turn, MGRAWTIQAGNVMCRVVGKH gave an amyloid nucleation score of -0.283 ± 0.58.

IAHISLQNIVDVMGPNRSMY: the amyloid nucleation score amounted to 1.44 ± 0.14.

For NCNVPRSHGGGFLTYTLMRE, the amyloid nucleation score entry was “inactive”.

For YILNC, the amyloid nucleation score result is “inactive”.

For the substance MLREMY, the amyloid nucleation score entry was “inactive”.

In the case of TLPMLDNTNNFTSPL, the amyloid nucleation score was -0.034 ± 0.31.

For PDDSRRNPRFG, the amyloid nucleation score result is “inactive”.

QVFSN: the amyloid nucleation score entry was “inactive”.

PFSSLASVVPLRGFG: the amyloid nucleation score result is “inactive”.

Consider FARVRVNISFPISKSFCNIM, for which the amyloid nucleation score was found to be 2.34 ± 0.083.

For VGKLLVGTWWHGSYRSMSKR, the amyloid nucleation score entry was “inactive”.

SLPACKSGVKNTYVLYLTWN gave an amyloid nucleation score of 1.19 ± 0.11.

Consider IFTHVVEEFS, for which the amyloid nucleation score entry is “inactive”.

Turning to YLYRNRS, the amyloid nucleation score result is “inactive”.

As to VRLRDLN, the amyloid nucleation score entry was “inactive”.

Turning to FPILS, the amyloid nucleation score entry is “inactive”.

Regarding RTFMYMWRSEIF, the amyloid nucleation score result is “inactive”.

For WSNSCYEC, the amyloid nucleation score result was “inactive”.

With IPRVAWQSYILTSQ, the amyloid nucleation score entry is “inactive”.

CFRLPCVQESVPDKVLLTGS: the amyloid nucleation score result was “inactive”.

For the substance CIWLTVIFSWRYEVG, the amyloid nucleation score result was “inactive”.

Take KYVVQPYGSCRWGLITVRAN: the amyloid nucleation score result was “inactive”.

As for LCGLERLKVMQWHSVPRKHI, the amyloid nucleation score result was “inactive”.

With RTLRRLTGNSILFRYWSNKG, the amyloid nucleation score entry is “inactive”.

Take TYWVGWML: the amyloid nucleation score entry is “inactive”.

On to DGFYYSALLMFLV, for which the amyloid nucleation score entry was “inactive”.

For the substance IWVSYWAGFVRSFSRVCNLV, the amyloid nucleation score entry was “inactive”.

For RLSEFGVNVAQMWATVVTSL, the amyloid nucleation score entry is “inactive”.

As to FPWFTEASPPEMKLDK, the amyloid nucleation score is 0.816 ± 0.23.

As for VVRVHIRCTAFYKAPSYWGS, the amyloid nucleation score turned out to be 0.987 ± 0.11.

For VRGGHSTTGI, the amyloid nucleation score entry is “inactive”.

On to FGSVERFLLDPLTGHVGRFF, for which the amyloid nucleation score result is “inactive”.

Regarding GRNKSLYGIGLVRYVMLVSE, the amyloid nucleation score result was “inactive”.

With VQKSMR, the amyloid nucleation score result was “inactive”.

On to AFLPMCGLDFKWRYV, for which the amyloid nucleation score is -0.22 ± 1.4.

For the substance IRGASYPSATNRHAAMLVWM, the amyloid nucleation score entry was “inactive”.

Take VDEFFGRGVHWLTVRLGLGM: the amyloid nucleation score result was “inactive”.

Regarding IESVRKHGGCTAFVSSWYVM, the amyloid nucleation score entry is “inactive”.

For the substance ATIIPICSHLIDHSVSLDQG, the amyloid nucleation score result was “inactive”.

With IISMVCED, the amyloid nucleation score amounted to 0.297 ± 0.32.

Consider VVATTLEFMWRHMGTYFWGI, for which the amyloid nucleation score entry was “inactive”.

For FFFLLKMRHKPSASANLNSN, the amyloid nucleation score entry is “inactive”.

On to IALSLLKTAKIMY, for which the amyloid nucleation score result is “inactive”.

The substance GLVVWKNGINWLSEGVTIAR returned an amyloid nucleation score of 0.567 ± 0.25.

In the case of GCREICFNLCFKRSLTCALL, the amyloid nucleation score result is “inactive”.

On to KIGGVYVLVS, for which the amyloid nucleation score result is “inactive”.

VFNRSCINFKRYGSA: the amyloid nucleation score entry was “inactive”.

ILLSVSWGAR: the amyloid nucleation score came out at 1.49 ± 0.13.

For IDCLFRLAGYWSALWTFVLF, the amyloid nucleation score result is “inactive”.

With DLSRTSAVSVRKRVCVFSLH, the amyloid nucleation score entry was “inactive”.

As to FISRVMGSSR, the amyloid nucleation score entry is “inactive”.

Consider CGLRIRWSNVLYSRRTCGFT, for which the amyloid nucleation score entry is “inactive”.

HCVRVASWGT: the amyloid nucleation score entry is “inactive”.

Turning to GNCTSVLDPSELVVYHCEGS, the amyloid nucleation score result was “inactive”.

As to GHIKWGNCSSYVSGFKLTCG, the amyloid nucleation score result is “inactive”.

For the substance SRRFTLPGGSMFTEVLM, the amyloid nucleation score entry was “inactive”.

On to TVNLDQMYYMVFCVFRSMHD, for which the amyloid nucleation score worked out at 0.498 ± 0.43.

As for LKCFEMNYQYGRRLNNG, the amyloid nucleation score entry is “inactive”.

With SYGHLQILKVMAIPSYAFPK, the amyloid nucleation score entry was “inactive”.

Turning to RSFRSKPKYLLTSDTCWSLT, the amyloid nucleation score result is “inactive”.

Take LVEIVLYWSRVWYWTRGSNV: the amyloid nucleation score result is “inactive”.

As to GSLRNPVSGRLENVGGRAWG, the amyloid nucleation score result is “inactive”.

As to CSRSAENNFMMNLLNTIRVL, the amyloid nucleation score result is “inactive”.

In turn, WTDNSVFLTVVINDIRTSTS yielded an amyloid nucleation score of 2.56 ± 0.062.

Consider MIYLYNKKYMSCRFDTCIIP, for which the amyloid nucleation score result is “inactive”.

Take ISWTYVRYYGHKKCCLFYHF: the amyloid nucleation score result was “inactive”.

As for SLSSWLWVVLIVHCMSGRNS, the amyloid nucleation score entry is “inactive”.

Consider TYHSCY, for which the amyloid nucleation score entry is “inactive”.

As for NRLCFISAMCNVTYWVICNH, the amyloid nucleation score result was “inactive”.

Turning to SQPDCFNICDLHGRSSCVSK, the amyloid nucleation score result is “inactive”.

In the case of RANESTLM, the amyloid nucleation score entry was “inactive”.

As for ERNFPGLFIQLVHLQPEARM, the amyloid nucleation score was found to be 0.631 ± 0.34.

In turn, AMEEDIYLTNDYTIIM came in with an amyloid nucleation score of 0.45 ± 0.39.

In turn, SSSVRMRCSCISLASNKCAY came in with an amyloid nucleation score of 1.26 ± 0.12.

Regarding QQYSTAYYIHGFTKMVGVVA, the amyloid nucleation score amounted to 0.298 ± 0.19.

As to SWSTSNVVLNL, the amyloid nucleation score is 1.99 ± 0.072.

Substance VTFSCLYVFFYRQVIRCFGM yielded an amyloid nucleation score of 0.059 ± 0.26.

As to TSIIRMAPRPTHSRVIWFKV, the amyloid nucleation score entry was “inactive”.

The substance KLTIRYLWYPLEQSGYRTCE showed an amyloid nucleation score of 1.06 ± 0.2.

Regarding FSFYFQDNTIKRWEAIED, the amyloid nucleation score result is “inactive”.

Take VVVSERVREMRDYNVLLRCT: the amyloid nucleation score entry is “inactive”.

Consider TYLLNGTILLNPCKLC, for which the amyloid nucleation score result is “inactive”.

With RCYFKYP, the amyloid nucleation score was 1.32 ± 0.13.

Take NRACKLCSFKSGQRSNTMGF: the amyloid nucleation score result was “inactive”.

Substance LGESMRRVKVSVQIRIHMGQ registered an amyloid nucleation score of 1.11 ± 0.16.

Turning to LSTQNRISASREMMDTDILG, the amyloid nucleation score was 0.8 ± 0.13.

For DFWRYDSS, the amyloid nucleation score result is “inactive”.

As to CFIVQWMLTLMCVFANCILT, the amyloid nucleation score result is “inactive”.
